Assay results: the supplement of paper PMC9170038

Test system: MS2 coat protein
Experiment: apparent KD of MS2 coat protein; designed switch direction (-1 OFF switch, 1 ON switch): -1; higher = weaker reporter binding
Outline: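 The buffer was Tris-HCl pH 7.5 with KCl, MgCl2, BSA, DTT, tRNA and Tween-20. In it, SNAP-549-labelled MS2 coat protein was titrated in doubling steps from 0.7 or 1.5 nM to 3 µM over chip-bound RNA switches transcribed by stalled E. coli RNA polymerase on Illumina chips. Apparent KD is the per-design median over clusters of curve fits to normalised fluorescence.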

[1] = Eterna round: R95, input ligand: FMN 200 uM
[2] = Eterna round: R95, input ligand: microRNA oligo, concentration not stated
[3] = Eterna round: R95, input ligand: none
[4] = input ligand: microRNA oligo, concentration not stated

| Sequence | apparent KD of MS2 coat protein [1] [nM] | apparent KD of MS2 coat protein [2] [nM] | apparent KD of MS2 coat protein [3] [nM] | apparent KD of MS2 coat protein (input ligand: FMN 200 uM) [nM] | apparent KD of MS2 coat protein (input ligand: none) [nM] | apparent KD of MS2 coat protein [4] [nM] |
| --- | --- | --- | --- | --- | --- | --- |
| UAGGUACAUGAGGAUCACCCAUGUGAGGAUAUAGUUGAAGAUUGCGAGAGGUUGAGGACUAGAAGGCACAGUGG [JR_Exclu1_Sub038] (puzzle: Exclusion 1) | 137 | 63.5 | 90.2 | – | – | – |
| CGCAUGUAAGGAUAUUAGUAGUAGUCAGAAUAGACUAUUACUGAGAAGGUACAUGAGGAUCACCCAUGUCAGCG [Eli x4 4.17] (Eterna round: R97, puzzle: Exclusion 4) | – | – | – | 361 | 56.4 | – |
| CUGAGGUAGCGGUCCUAUGACAUGAGGAUCACCCAUGUACCUUGCUUCGAGCUUAUUGCUCGUCUUAUGAUUCUCGG [Mat - Sensor v3 - turn-off var 1 - JL Mod - D33] (puzzle: Sensor v3, turn-off variant 1) | 551 | 714 | 613 | – | – | – |
| CGGUGCUGAGGAUAUACAUGAGGAUCACCCAUGUGUUCCUGCUAGCGUACUGGCAGAUGUAGAAGGCGGUACUG [JL-ex3-3.44 Brourd mod] (puzzle: Exclusion 3) | 84 | 20.8 | 26.7 | – | – | – |
| ACAUGAGGAUCACCCAUGUUUUUCGGGUACUCUUUUUACAGCAAGGAUAUGCAUUAUUUUUUUACGCAGAAGGUGCUUUACGUC [JR_ExcNG3_Sub066] (Eterna round: R96, puzzle: Exclusion NG 3) | – | – | – | – | – | 116 |
| ACCUCACAUGAGGAUCACCCAUGUCAGGAUAUGUACCUAGCCAAAACAAAGGCCAGAAGCAGAAGGGACUGCGG [Ralerezara] (puzzle: Exclusion 1) | 24.1 | 53.4 | 44.6 | – | – | – |
| AUAUCAAGCAAGGAUAUGCAAAUGGUUAUUUAUGCAGAAGGUGCAACAUGAGGAUCACCCAUGUUUCUGGGUUU [JR_E6_Sub049] (puzzle: Exclusion 6) | – | 48.2 | – | – | – | – |
| GGAAUGAGAGAGGAUAUGGGAGGGAGGACCGGACCAGAAGGCUCGACAUGAGGAUCACCCAUGUAGAGAUCCUC [AK-MS2ROC-r4-exclusion6-6.10] (Eterna round: R97, puzzle: Exclusion 6) | – | – | – | 260 | 75.7 | – |
| AGCUGUGGCCGAGGAUAUCUAACAAUCCUAACCGAAAUAUAAUCGGACAUGAGGAUCACCCAUGUAGAGAAGGCGGUCUCAGCA [Eli eng2 - 074] (Eterna round: R96, puzzle: Exclusion NG 2) | – | – | – | – | – | 68.1 |
| CAUUAUUAUCGAGGAUAUCCUAUUGAAAUUCUGGGAGAAGGCGGACUCAACAUGAGGAUCACCCAUGUGGGACGGAUGCUAGGC [salish99_exng1_r04_601] (Eterna round: R96, puzzle: Exclusion NG 1) | – | – | – | 14.2 | 19.3 | 15.6 |
| UCUUUACAUGAGGAUCACCCAUGUGAGGAUAUGGUUUCGCUGGCCGUAGCCAGUGGAACCAGAAGGCGCGUGAU [Mat - Exclusion 1 - JL Mod - D25] (Eterna round: R97, puzzle: Exclusion 1) | – | – | – | 55.1 | 70.9 | – |
| UAAUAAAGUGUGAGGAUAUGCUGGUCCUUGGAUCAGCAGAAGGCACAUGAGGAUCACCCAUGUAAUAUAUAAAU [Mat - Exclusion 4 - JL Mod - D55] (puzzle: Brourd's mod of Exclusion 4) | – | 70.4 | – | – | – | – |
| GGAUAUCGAGGAUAUACAUGAGGAUCACCCAUGUUGAAUCCGUGGGAUGGCCGACGAUGUAGAAGGUGACUCAU [Eternabot (Original) Solution 27] (Eterna round: R97, puzzle: Exclusion 3) | – | – | – | 134 | 232 | – |
| CAAAACACUGGAGGAUAUUGGAAAGGAAGUGUACAAGAAGGCCAGCUCUAACAUGAGGAUCACCCAUGUCCAGGGCAUGGGCAA [PowerStrip EXNG 1.12] (Eterna round: R96, puzzle: Exclusion NG 1) | – | – | – | 31.8 | 11.7 | 19.9 |
| CGUAAGCUAGGAUAUGCUUUGGGAAAGCAUUCCUUCGAUAAACUUGAGGAUCACCCAAGUAGAAGGAGCUUACU [salish99_ex2_r4_011] (Eterna round: R97, puzzle: Exclusion 2) | – | – | – | 19.5 | 12.5 | – |
| CCAGCGUAUGUGAGGAUAUGCUGGUCCUUGGAUCAGCAGAAGGCACAUGAGGAUCACCCAUGUGAUAACGUUGG [JL bmx4 3.39] (puzzle: Brourd's mod of Exclusion 4) | – | 46.6 | – | – | – | – |

| Sequence | apparent KD of MS2 coat protein [1] [nM] | apparent KD of MS2 coat protein [2] [nM] | apparent KD of MS2 coat protein [3] [nM] | apparent KD of MS2 coat protein (input ligand: FMN 200 uM) [nM] | apparent KD of MS2 coat protein (input ligand: none) [nM] | apparent KD of MS2 coat protein [4] [nM] |
| --- | --- | --- | --- | --- | --- | --- |
| GGACUGCGACACAGCCAAACAAAACAUGAGGAUCACCCAUGUCAGGAUAUACCGAUGCAGCAUCUGUAGAAGGGACAGAUCCAA [Qusorave] (Eterna round: R96, puzzle: Exclusion NG 3) | – | – | – | 80.3 | 85.9 | 45.4 |
| GAUCUACAUGAGGAUCACCCAUGUGAGGAUAUUUAGACCAACGCUCUAGCUGUUGAUGGAAGAAGGCACCACCG [Eternabot (L2) Solution 56] (Eterna round: R97, puzzle: Exclusion 1) | – | – | – | 25.4 | 26.2 | – |
| AAAUUGUGAGGAUAUCAGGUGUGCUAGCGUACUGGUACAUCUGAGAAGGCACAUGAGGAUCACCCAUGUUUCUU [Mat - Exclusion 4 - Mod of JL - D43] (puzzle: Exclusion 4) | – | 15.2 | – | – | – | – |
| AUAUAACAUGAGGAUCACCCAUGUGAGGAUAUGCGAUAUAUAAUAAUAAUAAUAAUAAGCAGAAGGCACAAAAU [My FIrst Design] (puzzle: Exclusion 1) | 60.2 | 78.7 | 71.7 | – | – | – |
| GGAAGGCGAGGAUAUGCAAUAAUACACUAAUUAAUGUGAAAACAUGAGGAUCACCCAUGUAGAAGGCGCGAGAA [AK-MS2ROC-r4-exclusion2-5] (Eterna round: R97, puzzle: Exclusion 2) | – | – | – | 21.2 | 20.7 | – |
| AAGUACCGUCACGAUAGUGAUGGUACAACAAGUAGUGAAACAUGAGGAUCACCCAUGUCCUCAUUUGCUCGUCUUAU [Sensor 3 - 87] (puzzle: Sensor v3, turn-off variant 2) | 1030 | 365 | 806 | – | – | – |
| UGCAAGCUUAUGAGACCUCACAUGAGGAUCACCCAUGUGCUCGUCUUAUGGGCCGGCCGGCCGUUGGCCGGCCGGCC [-45.5, -68.5 kcal, A 16%] (Eterna round: R97, puzzle: Sensor, turn-off variant 1) | – | – | – | 16.6 | 16.5 | – |
| CUAUUGGCAGGAUAUGCUUUUUUUGACAUGAGGAUCACCCAUGUGAUGCAUUUUGGGUUUGCAGAAGGGCCUGAGU [JR_E5_Sub037] (puzzle: Exclusion 5) | – | 64.9 | – | – | – | – |
| CAUGAUCUUCGGAUCAUGUACAUGAGGAUCACCCAUGUUACGAGCUGAUUUUCAUACAAGCUUUUUGCUCGUCUUAU [Sensor v3 - Turn-off variant 1 - 30] (puzzle: Sensor v3, turn-off variant 1) | 41.5 | 317 | 43 | – | – | – |
| UUGUCGCAUGUAGGAUAUGUAUGUUAUUAUCAUACAGAAGGACAUGAGGAUCACCCAUGUGUAUUAUUAUUAUAUGUUACAUAU [MOD of Hoglahoo's a different Title] (Eterna round: R96, puzzle: Exclusion NG 1) | – | – | – | – | – | 14 |
| UUAAGCUUUGAGAUCCUUAACAUGAGGAUCACCCAUGUUCGUCUUAUGAUGGUCUGAUCCCUGAGGAUCGGACCGUU [Mat - Sensor v3 - turn-off var 1 - JL Mod - D3] (puzzle: Sensor v3, turn-off variant 1) | 261 | 22.5 | 303 | – | – | – |
| AGUAACUAUCACGAAAGUGAUAGUUACAACAAGUGAUAAACAUGAGGAUCACCCAUGUCCUCAUUUGUUCGUCUUAU [Sensor 3 - 14] (puzzle: Sensor v3, turn-off variant 2) | 240 | 373 | 225 | – | – | – |
| AGUAGGAGAGGAUAUACAUGAAGUCGAAAGACUUCAACUCAACAUGAGGAUCACCCAUGUAGAAGGCUCCUACA [Omei Ex2 BD A6] (Eterna round: R97, puzzle: Exclusion 2) | – | – | – | 132 | 25.8 | – |
| UUAAAUCAUGUAGGAUAUGCUUUGCAAAGCGAGGCAGAAGGACAUGAGGAUCACCCAUGUGCUAGCGUCCGAGAACGGAUGCAA [Mat - Exclusion NG 1 - Mod of JL - D64] (Eterna round: R96, puzzle: Exclusion NG 1) | – | – | – | 503 | 46.6 | 41.6 |
| AUAGAGUUAGGAUAUGAGAGGCCGAACAUGAGGAUCACCCAUGUUCCGCGUGUUGCUCCCUUAGAAGGAACGAAUA [EX5 B.3] (Eterna round: R97, puzzle: Exclusion 5) | – | – | – | 14.7 | 22 | – |
